The target in assay [1] is T1, human programmed cell death protein 1 (hPD-1) C93S (aa 24-167) (Homo sapiens, UniProt Q15116, C93S).
T1 construct: made as a fusion with a TEV site and human Fc; the Fc was cut off with TEV protease; source: Expi293F, purified (Protein A, TEV cleavage of Fc, SEC; monomer fractions); not shown: Fc (human), C-terminal, cleaved
In words: SPR; Carterra LSA; Fab from the ammonium sulfate precipitate of the culture supernatant immobilised on a NiHC200M chip; hPD-1 (1-1024 nM) or mPD-1-Fc (4-1024 nM) as analyte, fourfold dilution series, no regeneration; HBS-EP pH 7.4, 25 °C; medians over the spots of a construct, KD = koff/kon. The conditions noted are these: one partner purified. The gist of the method:
(§1)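 On a Carterra LSA at 25 °C, duplicate captures of Fabs were made on a NiHC200M chip; the Fabs came from Brevibacillus culture supernatants, were precipitated with ammonium sulfate and were redissolved in HBS-EP. Fourfold series of human PD-1 (1–1024 nM) or mouse PD-1-Fc (4–1024 nM) were passed over without regeneration, with 10 min association and 5 min dissociation. Binders that were not confirmed were assigned kon 10^3 […] and koff 10^−2 s^−1. The kdka model, run with slow- or fast-dissociation settings and keeping the better fit, gave the rates, and KD was taken as koff/kon from the median values for each construct.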
Background: Surface plasmon resonance follows binding to a sensor surface in real time, without labels.

The target of assay [2] is T2, mouse programmed cell death protein 1 Fc fusion protein (mPD-1-Fc), mPD-1 C60S (aa 25-167) (Mus musculus, UniProt Q02242, stabilised).
T2 construct: not cleaved; source: Expi293F, purified (Protein A, SEC; dimeric fraction); not shown: Fc (human), C-terminal, kept
Described as above. The conditions noted are these: one partner purified. The gist of the method:
as §1

T1 sequence (Q15116 24-167 C93S): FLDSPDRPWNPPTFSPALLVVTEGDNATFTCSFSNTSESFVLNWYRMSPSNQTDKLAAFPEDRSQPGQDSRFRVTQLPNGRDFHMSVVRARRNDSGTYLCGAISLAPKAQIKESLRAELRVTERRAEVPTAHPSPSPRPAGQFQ

B1: toripalimab Fab H.D31A (Fab, V domains shown)
VH: QGQLVQSGAEVKKPGASVKVSCKASGYTFTAYEMHWVRQAPIHGLEWIGVIESETGGTAYNQKFKGRVTITADKSTSTAYMELSSLRSEDTAVYYCAREGITTVATTYYWYFDVWGQGTTVTVSS
VL: DVVMTQSPLSLPVTLGQPASISCRSSQSIVHSNGNTYLEWYLQKPGQSPQLLIYKVSNRFSGVPDRFSGSGSGTDFTLKISRVEAEDVGVYYCFQGSHVPLTFGQGTKLEIK
notes: heavy chain of Sm3 with this change; numbers count from the chain's first residue; as the light chain of Sm3; source: Brevibacillus, culture supernatant (ammonium sulfate precipitate); not shown: 6xHis, C-terminal, kept; 6xHN, C-terminal, kept
Broadly, the Kd is a measure of binding affinity in units of concentration. A higher Kd goes with lower affinity. By koff is commonly meant the rate constant with which the complex falls apart. A word on the kon: it is the second-order rate constant of association. With B1, in assay [1], the Kd was under 0.861 nM, the koff is under 1e-05 s⁻¹ and the kon stood at 11600 M⁻¹ s⁻¹. Also, in assay [2], the Kd came to 204 nM, the koff was found to be 0.00913 s⁻¹ and the kon stood at 44700 M⁻¹ s⁻¹.

B2: toripalimab Fab L.Q95Y (Fab, V domains shown)
VH: QGQLVQSGAEVKKPGASVKVSCKASGYTFTDYEMHWVRQAPIHGLEWIGVIESETGGTAYNQKFKGRVTITADKSTSTAYMELSSLRSEDTAVYYCAREGITTVATTYYWYFDVWGQGTTVTVSS
VL: DVVMTQSPLSLPVTLGQPASISCRSSQSIVHSNGNTYLEWYLQKPGQSPQLLIYKVSNRFSGVPDRFSGSGSGTDFTLKISRVEAEDVGVYYCFYGSHVPLTFGQGTKLEIK
notes: as the heavy chain of Sm3; light chain of Sm3 with this change; numbers count from the chain's first residue; source: Brevibacillus, culture supernatant (ammonium sulfate precipitate); not shown: 6xHis, C-terminal, kept; 6xHN, C-terminal, kept
Take B2: in assay [1], binding was put at a Kd of 55 nM, the koff stood at 0.000734 s⁻¹ and the kon was 13300 M⁻¹ s⁻¹.

B3: toripalimab Fab L.E39A (Fab, V domains shown)
VH: QGQLVQSGAEVKKPGASVKVSCKASGYTFTDYEMHWVRQAPIHGLEWIGVIESETGGTAYNQKFKGRVTITADKSTSTAYMELSSLRSEDTAVYYCAREGITTVATTYYWYFDVWGQGTTVTVSS
VL: DVVMTQSPLSLPVTLGQPASISCRSSQSIVHSNGNTYLAWYLQKPGQSPQLLIYKVSNRFSGVPDRFSGSGSGTDFTLKISRVEAEDVGVYYCFQGSHVPLTFGQGTKLEIK
notes: as for B2
In assay [1], B3 registered a Kd of 88.4 nM, a koff of 0.000203 s⁻¹ and a kon of 2290 M⁻¹ s⁻¹.

B4: toripalimab Fab L.S97Y (Fab, V domains shown)
VH: QGQLVQSGAEVKKPGASVKVSCKASGYTFTDYEMHWVRQAPIHGLEWIGVIESETGGTAYNQKFKGRVTITADKSTSTAYMELSSLRSEDTAVYYCAREGITTVATTYYWYFDVWGQGTTVTVSS
VL: DVVMTQSPLSLPVTLGQPASISCRSSQSIVHSNGNTYLEWYLQKPGQSPQLLIYKVSNRFSGVPDRFSGSGSGTDFTLKISRVEAEDVGVYYCFQGYHVPLTFGQGTKLEIK
notes: as for B2
Regarding B4, in assay [1], the Kd worked out at 63.3 nM, the koff is 0.000845 s⁻¹ and the kon is 13300 M⁻¹ s⁻¹.

B5: toripalimab Fab H.E54Y (Fab, V domains shown)
VH: QGQLVQSGAEVKKPGASVKVSCKASGYTFTDYEMHWVRQAPIHGLEWIGVIESYTGGTAYNQKFKGRVTITADKSTSTAYMELSSLRSEDTAVYYCAREGITTVATTYYWYFDVWGQGTTVTVSS
VL: DVVMTQSPLSLPVTLGQPASISCRSSQSIVHSNGNTYLEWYLQKPGQSPQLLIYKVSNRFSGVPDRFSGSGSGTDFTLKISRVEAEDVGVYYCFQGSHVPLTFGQGTKLEIK
notes: as for B1
In assay [1], B5 returned a Kd of under 0.326 nM, a koff of under 1e-05 s⁻¹ and a kon of 30700 M⁻¹ s⁻¹. In assay [2], binding was put at a Kd of 80.3 nM, the koff is 0.00402 s⁻¹ and the kon was 50100 M⁻¹ s⁻¹.

B6: toripalimab Fab H.E52A (Fab, V domains shown)
VH: QGQLVQSGAEVKKPGASVKVSCKASGYTFTDYEMHWVRQAPIHGLEWIGVIASETGGTAYNQKFKGRVTITADKSTSTAYMELSSLRSEDTAVYYCAREGITTVATTYYWYFDVWGQGTTVTVSS
VL: DVVMTQSPLSLPVTLGQPASISCRSSQSIVHSNGNTYLEWYLQKPGQSPQLLIYKVSNRFSGVPDRFSGSGSGTDFTLKISRVEAEDVGVYYCFQGSHVPLTFGQGTKLEIK
notes: as for B1
In assay [1], B6 yielded a Kd of 40.1 nM, a koff of 0.000844 s⁻¹ and a kon of 21100 M⁻¹ s⁻¹.

B7: toripalimab Fab H.T55Y (Fab, V domains shown)
VH: QGQLVQSGAEVKKPGASVKVSCKASGYTFTDYEMHWVRQAPIHGLEWIGVIESEYGGTAYNQKFKGRVTITADKSTSTAYMELSSLRSEDTAVYYCAREGITTVATTYYWYFDVWGQGTTVTVSS
VL: DVVMTQSPLSLPVTLGQPASISCRSSQSIVHSNGNTYLEWYLQKPGQSPQLLIYKVSNRFSGVPDRFSGSGSGTDFTLKISRVEAEDVGVYYCFQGSHVPLTFGQGTKLEIK
notes: as for B1
Take B7: in assay [1], the Kd was under 0.354 nM, the koff is under 1e-05 s⁻¹ and the kon is 28300 M⁻¹ s⁻¹. In assay [2], binding was characterised by a dissociation constant (Kd) of 35.8 nM, the koff was determined as 0.00179 s⁻¹ and the kon worked out at 49900 M⁻¹ s⁻¹.

B8: toripalimab Fab L.G96A (Fab, V domains shown)
VH: QGQLVQSGAEVKKPGASVKVSCKASGYTFTDYEMHWVRQAPIHGLEWIGVIESETGGTAYNQKFKGRVTITADKSTSTAYMELSSLRSEDTAVYYCAREGITTVATTYYWYFDVWGQGTTVTVSS
VL: DVVMTQSPLSLPVTLGQPASISCRSSQSIVHSNGNTYLEWYLQKPGQSPQLLIYKVSNRFSGVPDRFSGSGSGTDFTLKISRVEAEDVGVYYCFQASHVPLTFGQGTKLEIK
notes: as for B2
In assay [1], B8 yielded a Kd of 372 nM, an off-rate (koff) of 0.00516 s⁻¹ and a kon of 13900 M⁻¹ s⁻¹.

B9: toripalimab Fab H.H35A (Fab, V domains shown)
VH: QGQLVQSGAEVKKPGASVKVSCKASGYTFTDYEMAWVRQAPIHGLEWIGVIESETGGTAYNQKFKGRVTITADKSTSTAYMELSSLRSEDTAVYYCAREGITTVATTYYWYFDVWGQGTTVTVSS
VL: DVVMTQSPLSLPVTLGQPASISCRSSQSIVHSNGNTYLEWYLQKPGQSPQLLIYKVSNRFSGVPDRFSGSGSGTDFTLKISRVEAEDVGVYYCFQGSHVPLTFGQGTKLEIK
notes: as for B1
In assay [1], B9 registered an equilibrium dissociation constant (Kd) of 2470 nM, a koff of 0.00804 s⁻¹ and a kon of 3250 M⁻¹ s⁻¹.

B10: toripalimab Fab L.Y37A (Fab, V domains shown)
VH: QGQLVQSGAEVKKPGASVKVSCKASGYTFTDYEMHWVRQAPIHGLEWIGVIESETGGTAYNQKFKGRVTITADKSTSTAYMELSSLRSEDTAVYYCAREGITTVATTYYWYFDVWGQGTTVTVSS
VL: DVVMTQSPLSLPVTLGQPASISCRSSQSIVHSNGNTALEWYLQKPGQSPQLLIYKVSNRFSGVPDRFSGSGSGTDFTLKISRVEAEDVGVYYCFQGSHVPLTFGQGTKLEIK
notes: as for B2
Turning to B10, in assay [1], the Kd is 237 nM, the koff is 0.00432 s⁻¹ and the kon worked out at 18300 M⁻¹ s⁻¹.

B11: toripalimab Fab L.L101H (Fab, V domains shown)
VH: QGQLVQSGAEVKKPGASVKVSCKASGYTFTDYEMHWVRQAPIHGLEWIGVIESETGGTAYNQKFKGRVTITADKSTSTAYMELSSLRSEDTAVYYCAREGITTVATTYYWYFDVWGQGTTVTVSS
VL: DVVMTQSPLSLPVTLGQPASISCRSSQSIVHSNGNTYLEWYLQKPGQSPQLLIYKVSNRFSGVPDRFSGSGSGTDFTLKISRVEAEDVGVYYCFQGSHVPHTFGQGTKLEIK
notes: as for B2
In the case of B11, in assay [1], binding was put at a Kd of 60.6 nM, the koff is 0.00111 s⁻¹ and the kon came out at 18400 M⁻¹ s⁻¹.

B12: toripalimab Fab H.H35Y (Fab, V domains shown)
VH: QGQLVQSGAEVKKPGASVKVSCKASGYTFTDYEMYWVRQAPIHGLEWIGVIESETGGTAYNQKFKGRVTITADKSTSTAYMELSSLRSEDTAVYYCAREGITTVATTYYWYFDVWGQGTTVTVSS
VL: DVVMTQSPLSLPVTLGQPASISCRSSQSIVHSNGNTYLEWYLQKPGQSPQLLIYKVSNRFSGVPDRFSGSGSGTDFTLKISRVEAEDVGVYYCFQGSHVPLTFGQGTKLEIK
notes: as for B1
In assay [1], B12 returned a Kd of 294 nM, a koff of 0.00276 s⁻¹ and an association rate constant (kon) of 9390 M⁻¹ s⁻¹.

B13: toripalimab Fab H.T55A (Fab, V domains shown)
VH: QGQLVQSGAEVKKPGASVKVSCKASGYTFTDYEMHWVRQAPIHGLEWIGVIESEAGGTAYNQKFKGRVTITADKSTSTAYMELSSLRSEDTAVYYCAREGITTVATTYYWYFDVWGQGTTVTVSS
VL: DVVMTQSPLSLPVTLGQPASISCRSSQSIVHSNGNTYLEWYLQKPGQSPQLLIYKVSNRFSGVPDRFSGSGSGTDFTLKISRVEAEDVGVYYCFQGSHVPLTFGQGTKLEIK
notes: as for B1
Consider B13, for which, in assay [1], the affinity, expressed as Kd, was 5.76 nM; the koff amounted to 4.01e-05 s⁻¹; the kon came to 6960 M⁻¹ s⁻¹. In assay [2], this molecule displayed a Kd of 411 nM, a koff of 0.0151 s⁻¹ and a kon of 36800 M⁻¹ s⁻¹.

B14: toripalimab Fab H.I51Y (Fab, V domains shown)
VH: QGQLVQSGAEVKKPGASVKVSCKASGYTFTDYEMHWVRQAPIHGLEWIGVYESETGGTAYNQKFKGRVTITADKSTSTAYMELSSLRSEDTAVYYCAREGITTVATTYYWYFDVWGQGTTVTVSS
VL: DVVMTQSPLSLPVTLGQPASISCRSSQSIVHSNGNTYLEWYLQKPGQSPQLLIYKVSNRFSGVPDRFSGSGSGTDFTLKISRVEAEDVGVYYCFQGSHVPLTFGQGTKLEIK
notes: as for B1
In assay [1], B14 had an equilibrium dissociation constant (Kd) of 8.01 nM, a koff of 0.000297 s⁻¹ and a kon of 37000 M⁻¹ s⁻¹.

B15: toripalimab Fab L.L101W (Fab, V domains shown)
VH: QGQLVQSGAEVKKPGASVKVSCKASGYTFTDYEMHWVRQAPIHGLEWIGVIESETGGTAYNQKFKGRVTITADKSTSTAYMELSSLRSEDTAVYYCAREGITTVATTYYWYFDVWGQGTTVTVSS
VL: DVVMTQSPLSLPVTLGQPASISCRSSQSIVHSNGNTYLEWYLQKPGQSPQLLIYKVSNRFSGVPDRFSGSGSGTDFTLKISRVEAEDVGVYYCFQGSHVPWTFGQGTKLEIK
notes: as for B2
In assay [1], B15 gave a Kd of 237 nM, a koff of 0.0322 s⁻¹ and an association rate constant (kon) of 136000 M⁻¹ s⁻¹.

For the origin of these results see paper PMC10663500, “High-throughput analysis system of interaction kinetics for data-driven antibody design” (Scientific Reports, 2023).
